Experimental data as given in publication PMC9815587, “The structure of the human LACTB filament reveals the mechanisms of assembly and membrane binding” (PLOS Biology, 2022).

Assays:
[1] = biological target: the molecule itself; assay: SEC; Superose 6 Increase 10/300 GL; 20 mM HEPES-NaOH (pH 7.5), 140 mM NaCl, 10 mM KCl, 1 mM MgCl2, 1 mM DTT; self-assembly, filaments elute within the void volume
[2] = biological target: the molecule itself; assay: negative-stain TEM; SEC peak fractions diluted to approximately 2.0 μm (so in the source), 0.75% uranyl formate, Tecnai T12 at 100 kV; self-assembly into filaments

Row | Protein | binding result [1] | binding result [2]
1 | human LACTB (residues 97 to 547), wild-type (enzyme, UniProt P83111 97-547, looked up, human LACTB (serine beta-lactamase-like protein, mitochondrial), residues 97 to 547 of the gene product of residues 1 to 547; Assembles into helical filaments of stacked antiparallel dimers; number of copies not fixed; also called WT LACTB; serine beta-lactamase-like protein; source: E. coli BL21(DE3)-RIPL, purified (Ni-NTA, tag removed with Ulp1, SEC on Superose 6 Increase); not shown: His6, …) APPCSRCFARAIESSRDLLHRIKDEVGAPGIVVGVSVDGKEVWSEGLGYADVENRVPCKPETVMRIASISKSLTMVALAKLWEAGKLDLDIPVQHYVPEFPEKEYEGEKVSVTTRLLISHLSGIRHYEKDIKKVKEEKAYKALKMMKENVAFEQEKEGKSNEKNDFTKFKTEQENEAKCRNSKPGKKKNDFEQGELYLREKFENSIESLRLFKNDPLFFKPGSQFLYSTFGYTLLAAIVERASGCKYLDYMQKIFHDLDMLTTVQEENEPVIYNRARFYVYNKKKRLVNTPYVDNSYKWAGGGFLSTVGDLLKFGNAMLYGYQVGLFKNSNENLLPGYLKPETMVMMWTPVPNTEMSWDKEGKYAMAWGVVERKQTYGSCRKQRHYASHTGGAVGASSVLLVLPEELDTETINNKVPPRGIIVSIICNMQSVGLNSTALKIALEFDKDRSD | binds | –
2 | human LACTB (residues 97 to 547) 274ExExxExxEEE284 mutant (enzyme, UniProt P83111 97-547, looked up, human LACTB, residues 97 to 547, motif 274KxRxxKxxKKK284 changed to 274ExExxExxEEE284; single changes counted out from the printed motifs; source: E. coli BL21(DE3)-RIPL, purified (Ni-NTA, tag removed with Ulp1, SEC on Superose 6 Increase); not shown: His6, N-terminal, cleaved; SUMO, N-terminal, cleaved) APPCSRCFARAIESSRDLLHRIKDEVGAPGIVVGVSVDGKEVWSEGLGYADVENRVPCKPETVMRIASISKSLTMVALAKLWEAGKLDLDIPVQHYVPEFPEKEYEGEKVSVTTRLLISHLSGIRHYEKDIKKVKEEKAYKALKMMKENVAFEQEKEGKSNEKNDFTKFKTEQENEAECENSEPGEEENDFEQGELYLREKFENSIESLRLFKNDPLFFKPGSQFLYSTFGYTLLAAIVERASGCKYLDYMQKIFHDLDMLTTVQEENEPVIYNRARFYVYNKKKRLVNTPYVDNSYKWAGGGFLSTVGDLLKFGNAMLYGYQVGLFKNSNENLLPGYLKPETMVMMWTPVPNTEMSWDKEGKYAMAWGVVERKQTYGSCRKQRHYASHTGGAVGASSVLLVLPEELDTETINNKVPPRGIIVSIICNMQSVGLNSTALKIALEFDKDRSD | – | binds
3 | human LACTB (residues 97 to 547) 259EAxAxEAE266 mutant (enzyme, UniProt P83111 97-547, looked up, human LACTB, residues 97 to 547, motif 259KNxFxKFK266 changed to 259EAxAxEAE266; single changes counted out from the printed motifs; source: E. coli BL21(DE3)-RIPL, purified (Ni-NTA, tag removed with Ulp1, SEC on Superose 6 Increase); not shown: His6, N-terminal, cleaved; SUMO, N-terminal, cleaved) APPCSRCFARAIESSRDLLHRIKDEVGAPGIVVGVSVDGKEVWSEGLGYADVENRVPCKPETVMRIASISKSLTMVALAKLWEAGKLDLDIPVQHYVPEFPEKEYEGEKVSVTTRLLISHLSGIRHYEKDIKKVKEEKAYKALKMMKENVAFEQEKEGKSNEEADATEAETEQENEAKCRNSKPGKKKNDFEQGELYLREKFENSIESLRLFKNDPLFFKPGSQFLYSTFGYTLLAAIVERASGCKYLDYMQKIFHDLDMLTTVQEENEPVIYNRARFYVYNKKKRLVNTPYVDNSYKWAGGGFLSTVGDLLKFGNAMLYGYQVGLFKNSNENLLPGYLKPETMVMMWTPVPNTEMSWDKEGKYAMAWGVVERKQTYGSCRKQRHYASHTGGAVGASSVLLVLPEELDTETINNKVPPRGIIVSIICNMQSVGLNSTALKIALEFDKDRSD | – | binds
4 | human LACTB (residues 97 to 547) R117E (enzyme, UniProt P83111 97-547, looked up, human LACTB, residues 97 to 547, polymer interface 1 charge-reversal mutant; source: E. coli BL21(DE3)-RIPL, purified (Ni-NTA, tag removed with Ulp1, SEC on Superose 6 Increase); not shown: His6, N-terminal, cleaved; SUMO, N-terminal, cleaved) APPCSRCFARAIESSRDLLHEIKDEVGAPGIVVGVSVDGKEVWSEGLGYADVENRVPCKPETVMRIASISKSLTMVALAKLWEAGKLDLDIPVQHYVPEFPEKEYEGEKVSVTTRLLISHLSGIRHYEKDIKKVKEEKAYKALKMMKENVAFEQEKEGKSNEKNDFTKFKTEQENEAKCRNSKPGKKKNDFEQGELYLREKFENSIESLRLFKNDPLFFKPGSQFLYSTFGYTLLAAIVERASGCKYLDYMQKIFHDLDMLTTVQEENEPVIYNRARFYVYNKKKRLVNTPYVDNSYKWAGGGFLSTVGDLLKFGNAMLYGYQVGLFKNSNENLLPGYLKPETMVMMWTPVPNTEMSWDKEGKYAMAWGVVERKQTYGSCRKQRHYASHTGGAVGASSVLLVLPEELDTETINNKVPPRGIIVSIICNMQSVGLNSTALKIALEFDKDRSD | – | binds
5 | human LACTB (residues 97 to 547) with the L15 loop (V467 to Y482) replaced by a GGS linker (enzyme, human LACTB, residues 97 up to the residue before V467; glycine-glycine-serine (GGS) linker in place of V467 to Y482; human LACTB, from the residue after Y482 to 547; also called L15 loop replacement; removal of the L15 loop; source: E. coli BL21(DE3)-RIPL, purified (Ni-NTA, tag removed with Ulp1, SEC on Superose 6 Increase); not shown: His6, N-terminal, cleaved; SUMO, N-terminal, cleaved) APPCSRCFARAIESSRDLLHRIKDEVGAPGIVVGVSVDGKEVWSEGLGYADVENRVPCKPETVMRIASISKSLTMVALAKLWEAGKLDLDIPVQHYVPEFPEKEYEGEKVSVTTRLLISHLSGIRHYEKDIKKVKEEKAYKALKMMKENVAFEQEKEGKSNEKNDFTKFKTEQENEAKCRNSKPGKKKNDFEQGELYLREKFENSIESLRLFKNDPLFFKPGSQFLYSTFGYTLLAAIVERASGCKYLDYMQKIFHDLDMLTTVQEENEPVIYNRARFYVYNKKKRLVNTPYVDNSYKWAGGGFLSTVGDLLKFGNAMLYGYQVGLFKNSNENLLPGYLKPETMVMMWTPVPNTEMSWDKEGKYAMAWGVGGSASHTGGAVGASSVLLVLPEELDTETINNKVPPRGIIVSIICNMQSVGLNSTALKIALEFDKDRSD | – | binds
6 | human LACTB (residues 97 to 547) with the flexible loop region (residues K255 to K284) replaced by a GGS linker (enzyme, human LACTB, residues 97 up to the residue before K255; GGS linker in place of K255 to K284; human LACTB, from the residue after K284 to 547; also called ΔL6; flexible loop deletion; source: E. coli BL21(DE3)-RIPL, purified (Ni-NTA, tag removed with Ulp1, SEC on Superose 6 Increase); not shown: His6, N-terminal, cleaved; SUMO, N-terminal, cleaved) APPCSRCFARAIESSRDLLHRIKDEVGAPGIVVGVSVDGKEVWSEGLGYADVENRVPCKPETVMRIASISKSLTMVALAKLWEAGKLDLDIPVQHYVPEFPEKEYEGEKVSVTTRLLISHLSGIRHYEKDIKKVKEEKAYKALKMMKENVAFEQEKEGGGSNDFEQGELYLREKFENSIESLRLFKNDPLFFKPGSQFLYSTFGYTLLAAIVERASGCKYLDYMQKIFHDLDMLTTVQEENEPVIYNRARFYVYNKKKRLVNTPYVDNSYKWAGGGFLSTVGDLLKFGNAMLYGYQVGLFKNSNENLLPGYLKPETMVMMWTPVPNTEMSWDKEGKYAMAWGVVERKQTYGSCRKQRHYASHTGGAVGASSVLLVLPEELDTETINNKVPPRGIIVSIICNMQSVGLNSTALKIALEFDKDRSD | – | binds
